Experimental data from patent US20120237528A1 (Janssen / Centocor, published 2012).

Legend:
[1] = biological target: T1, recombinant extracellular domain (ECD) of human TF, amino acid 1-219 of the mature chain, C-terminal His6-tag (human, UniProt P13726 33-251); experiment: Biacore
T1 construct: expressed in a mammalian system; used for ELISA and Biacore; biotinylated by NHS-ester for the Fab ELISA; also called His6-TF-ECD1-219; HumanTF1-219

[2] = biological target: Innovin, lyophilized recombinant human tissue factor combined with phospholipids (human, UniProt P13726 33-295, limits assumed); experiment: cell-based or functional assay; note: test concentration or dose not given here

| Kd [1] | koff [1] | kon [1] | T½ Max (seconds), coagulation of human plasma [2] | Binder |
| --- | --- | --- | --- | --- |
| 0.17 nM |  |  |  | M1649 (antibody, V domains shown, complete MAb; FR4 is its own entry; also called H171/L335) VH: EVQLVQSGAEVKKPGESLRISCKGSGYTFAPYWIEWVRQMPGKGLEWMGDILPGTGFTTYSPSFQGHVTISADKSISTAYLQWSSLKASDTAMYYCARSGYYGNSGFAYWGQGTLVTVSS VL: DIVMTQTPLSLPVTPGEPASISCKSSQSLLFSANQRNYLTWYLQKPGQSPQLLIYWASTRDSGVPDRFSGSGSGTDFTLKISRVEAEDVGVYYCQNDDTYPLTFGQGTKLEIK |
| 0.41 nM | 5.6e-05 s⁻¹ | 134000 M⁻¹ s⁻¹ | 154 s | M1591 (antibody, V domains shown, complete MAb; FR4 is its own entry; also called H122/L3) VH: EVQLVQSGAEVKKPGESLRISCKGSGYTFRPYWIEWVRQMPGKGLEWMGDIIPGTGYTNYSPSFQGHVTISADKSISTAYLQWSSLKASDTAMYYCARSGYYGNSGFAYWGQGTLVTVSS VL: DIVMTQTPLSLPVTPGEPASISCKSSQSLLSSGNQKNYLTWYLQKPGQSPQLLIYWASTRESGVPDRFSGSGSGTDFTLKISRVEAEDVGVYYCQNDYTYPLTFGQGTKLEIK |
| 0.16 nM |  |  |  | M1653 (antibody, V domains shown, complete MAb; FR4 is its own entry; also called H171/L283) VH: EVQLVQSGAEVKKPGESLRISCKGSGYTFAPYWIEWVRQMPGKGLEWMGDILPGTGFTTYSPSFQGHVTISADKSISTAYLQWSSLKASDTAMYYCARSGYYGNSGFAYWGQGTLVTVSS VL: DIVMTQTPLSLPVTPGEPASISCKSSQSLLYTSNQKNYLTWYLQKPGQSPQLLIYWASTRESGVPDRFSGSGSGTDFTLKISRVEAEDVGVYYCQNDDYWPLTFGQGTKLEIK |
| 0.4 nM | 7.7e-05 s⁻¹ | 191000 M⁻¹ s⁻¹ | 163 s | M1592 (antibody, V domains shown, complete MAb; FR4 is its own entry; also called H165/L3) VH: EVQLVQSGAEVKKPGESLRISCKGSGYTFSPHWIEWVRQMPGKGLEWMGDILPGSGYTIYSPSFQGHVTISADKSISTAYLQWSSLKASDTAMYYCARSGYYGNSGFAYWGQGTLVTVSS VL: DIVMTQTPLSLPVTPGEPASISCKSSQSLLSSGNQKNYLTWYLQKPGQSPQLLIYWASTRESGVPDRFSGSGSGTDFTLKISRVEAEDVGVYYCQNDYTYPLTFGQGTKLEIK |
| 0.11 nM |  |  |  | M1652 (antibody, V domains shown, complete MAb; FR4 is its own entry; also called H171/L225) VH: EVQLVQSGAEVKKPGESLRISCKGSGYTFAPYWIEWVRQMPGKGLEWMGDILPGTGFTTYSPSFQGHVTISADKSISTAYLQWSSLKASDTAMYYCARSGYYGNSGFAYWGQGTLVTVSS VL: DIVMTQTPLSLPVTPGEPASISCKSSQSLLFRPTQKNYLTWYLQKPGQSPQLLIYWASTRESGVPDRFSGSGSGTDFTLKISRVEAEDVGVYYCQNDDSYPLTFGQGTKLEIK |
| 0.19 nM |  |  |  | M1651 (antibody, V domains shown, complete MAb; FR4 is its own entry; also called H171/L162) VH: EVQLVQSGAEVKKPGESLRISCKGSGYTFAPYWIEWVRQMPGKGLEWMGDILPGTGFTTYSPSFQGHVTISADKSISTAYLQWSSLKASDTAMYYCARSGYYGNSGFAYWGQGTLVTVSS VL: DIVMTQTPLSLPVTPGEPASISCKSSQSLLYVYGQKNYLTWYLQKPGQSPQLLIYWASTRESGVPDRFSGSGSGTDFTLKISRVEAEDVGVYYCQNDFSWPLTFGQGTKLEIK |
| 0.69 nM | 0.000109 s⁻¹ | 159000 M⁻¹ s⁻¹ | 180 s | M1590 (antibody, V domains shown, complete MAb; FR4 is its own entry; also called H117/L3) VH: EVQLVQSGAEVKKPGESLRISCKGSGYTFLPYWIEWVRQMPGKGLEWMGDIIPGTGFTNYSPSFQGHVTISADKSISTAYLQWSSLKASDTAMYYCARSGYYGNSGFAYWGQGTLVTVSS VL: DIVMTQTPLSLPVTPGEPASISCKSSQSLLSSGNQKNYLTWYLQKPGQSPQLLIYWASTRESGVPDRFSGSGSGTDFTLKISRVEAEDVGVYYCQNDYTYPLTFGQGTKLEIK |
| 0.19 nM |  |  |  | M1646 (antibody, V domains shown, complete MAb; FR4 is its own entry; also called H171/L138) VH: EVQLVQSGAEVKKPGESLRISCKGSGYTFAPYWIEWVRQMPGKGLEWMGDILPGTGFTTYSPSFQGHVTISADKSISTAYLQWSSLKASDTAMYYCARSGYYGNSGFAYWGQGTLVTVSS VL: DIVMTQTPLSLPVTPGEPASISCKSSQSLLWFVNQKNYLTWYLQKPGQSPQLLIYHASTRESGVPDRFSGSGSGTDFTLKISRVEAEDVGVYYCQNDDSYPLTFGQGTKLEIK |

Second part, the binder before the results:

| Binder | Kd [1] | koff [1] | kon [1] | T½ Max (seconds), coagulation of human plasma [2] |
| --- | --- | --- | --- | --- |
| M1583 (antibody, V domains shown, complete MAb; FR4 is its own entry; also called H177/L3) VH: EVQLVQSGAEVKKPGESLRISCKGSGYTFGPYWIEWVRQMPGKGLEWMGDIIPGSGWTNYSPSFQGHVTISADKSISTAYLQWSSLKASDTAMYYCARSGYYGNSGFAYWGQGTLVTVSS VL: DIVMTQTPLSLPVTPGEPASISCKSSQSLLSSGNQKNYLTWYLQKPGQSPQLLIYWASTRESGVPDRFSGSGSGTDFTLKISRVEAEDVGVYYCQNDYTYPLTFGQGTKLEIK | 0.42 nM | 0.0001 s⁻¹ | 239000 M⁻¹ s⁻¹ | 189 s |
| M1585 (antibody, V domains shown, complete MAb; FR4 is its own entry; also called H139/L3) VH: EVQLVQSGAEVKKPGESLRISCKGSGYTFSPFWIEWVRQMPGKGLEWMGDIIPGTGYTNYSPSFQGHVTISADKSISTAYLQWSSLKASDTAMYYCARSGYYGNSGFAYWGQGTLVTVSS VL: DIVMTQTPLSLPVTPGEPASISCKSSQSLLSSGNQKNYLTWYLQKPGQSPQLLIYWASTRESGVPDRFSGSGSGTDFTLKISRVEAEDVGVYYCQNDYTYPLTFGQGTKLEIK | 0.49 nM | 9e-05 s⁻¹ | 185000 M⁻¹ s⁻¹ | 205 s |
| M1586 (antibody, V domains shown, complete MAb; FR4 is its own entry; also called H164/L3) VH: EVQLVQSGAEVKKPGESLRISCKGSGYTFPTYWIEWVRQMPGKGLEWMGDIIPGTGWTNYSPSFQGHVTISADKSISTAYLQWSSLKASDTAMYYCARSGYYGNSGFAYWGQGTLVTVSS VL: DIVMTQTPLSLPVTPGEPASISCKSSQSLLSSGNQKNYLTWYLQKPGQSPQLLIYWASTRESGVPDRFSGSGSGTDFTLKISRVEAEDVGVYYCQNDYTYPLTFGQGTKLEIK | 0.78 nM | 0.000143 s⁻¹ | 184000 M⁻¹ s⁻¹ | 200 s |
| M1589 (antibody, V domains shown, complete MAb; FR4 is its own entry; also called H187/L3) VH: EVQLVQSGAEVKKPGESLRISCKGSGYTFGPHWIEWVRQMPGKGLEWMGDILPGTGYTNYSPSFQGHVTISADKSISTAYLQWSSLKASDTAMYYCARSGYYGNSGFAYWGQGTLVTVSS VL: DIVMTQTPLSLPVTPGEPASISCKSSQSLLSSGNQKNYLTWYLQKPGQSPQLLIYWASTRESGVPDRFSGSGSGTDFTLKISRVEAEDVGVYYCQNDYTYPLTFGQGTKLEIK | 0.4 nM | 7e-05 s⁻¹ | 174000 M⁻¹ s⁻¹ | 202 s |
| M1588 (antibody, V domains shown, complete MAb; FR4 is its own entry; also called H179/L3) VH: EVQLVQSGAEVKKPGESLRISCKGSGYTFGPFWIEWVRQMPGKGLEWMGDILPGSGYTNYSPSFQGHVTISADKSISTAYLQWSSLKASDTAMYYCARSGYYGNSGFAYWGQGTLVTVSS VL: DIVMTQTPLSLPVTPGEPASISCKSSQSLLSSGNQKNYLTWYLQKPGQSPQLLIYWASTRESGVPDRFSGSGSGTDFTLKISRVEAEDVGVYYCQNDYTYPLTFGQGTKLEIK | 0.35 nM | 6e-05 s⁻¹ | 173000 M⁻¹ s⁻¹ | 207 s |
| M1587 (antibody, V domains shown) VH: EVQLVQSGAEVKKPGESLRISCKGSGYTFIPYWIEWVRQMPGKGLEWMGDILPGSGFTTYSPSFQGHVTISADKSISTAYLQWSSLKASDTAMYYCARSGYYGNSGFAYWGQGTLVTVSS VL: DIVMTQTPLSLPVTPGEPASISCKSSQSLLSSGNQKNYLTWYLQKPGQSPQLLIYWASTRESGVPDRFSGSGSGTDFTLKISRVEAEDVGVYYCQNDYTYPLTFGQGTKLEIK |  |  |  | 202 s |
